From patent publication US20260055205A1 (published 2026)
Substitutions are numbered along the chain they refer to.

B1: PSMA.306 (bispecific antibody, V domains shown)
VH: QVQLVESGGGVVQPGRSLRLSCAASGRTFGIYVMGWFRQAPGKEREFVGAMSWSGSNRKVSDSVKGRFTISRDNSKNTLYLQMNSLRAEDTAVYYCAASNKLYGRTWYDFNESDYWGQGTQVTVSS
notes: TCE with CD3.23; also called AC3708
B2: PSMA.301 (bispecific antibody, V domains shown)
VH: B1 VH with M51I, Y95F
notes: TCE with CD3.23; also called AC3703
B3: PSMA.302 (bispecific antibody, V domains shown)
VH: B1 VH with M34W, M51I, Y95F
notes: TCE with CD3.23; also called AC3704
B4: PSMA.303 (bispecific antibody, V domains shown)
VH: B1 VH with Y95F
notes: TCE with CD3.23; also called AC3705
B5: PSMA.304 (bispecific antibody, V domains shown)
VH: B1 VH with M34W, Y95F
notes: TCE with CD3.23; also called AC3706
B6: PSMA.305 (bispecific antibody, V domains shown)
VH: B1 VH with M34W, M51I
notes: TCE with CD3.23; also called AC3707
B7: PSMA.307 (bispecific antibody, V domains shown)
VH: B1 VH with M34W
notes: TCE with CD3.23; also called AC3709
B8: PSMA.308 (bispecific antibody, V domains shown)
VH: B1 VH with M34W, L102W
notes: TCE with CD3.23; also called AC3710
B9: PSMA.309 (bispecific antibody, V domains shown)
VH: B1 VH with M34W, Y95F, L102W
notes: TCE with CD3.23; also called AC3711
B10: PSMA.310 (bispecific antibody, V domains shown)
VH: B1 VH with M51I, A97G, A98G
notes: TCE with CD3.23; also called AC3712
B11: PSMA.311 (bispecific antibody, V domains shown)
VH: B1 VH with M51I, Y94D
notes: TCE with CD3.23; also called AC3713
B12: PSMA.312 (bispecific antibody, V domains shown)
VH: B1 VH with M51I, A97G
notes: TCE with CD3.23; also called AC3714
B13: PSMA.313 (bispecific antibody, V domains shown)
VH: B1 VH with M51I, L102R
notes: TCE with CD3.23; also called AC3715
B14: PSMA.314 (bispecific antibody, V domains shown)
VH: B1 VH with M51I, L102D
notes: TCE with CD3.23; also called AC3716
B15: CD3.223 (bispecific antibody, V domains shown)
VH: EVQLVESGGGIVQPGGSLRLSCAASGFTFNTYAMNWVRQAPGKGLEWVGRIRTKYNDYATYYADSVKGRFTISRDDSKNTVYLQMNELKTEDTAVYYCVRHENFGNSYVSWFAHWGQGTLVTVSS
VL: ELVVTQEPSLTVSPGGTVTLTCRSSNGAVTSSNYANWVQQKPGQAPRGLIGGTNKRAPGTPARFSGSLLGGKAALTLSGVQPEDEAVYYCALWYPNLWVFGGGTKLTVL
notes: paTCE with PSMA.262; also called AC3654
B16: CD3.224 (bispecific antibody, V domains shown)
VH: B15 VH with N30S
VL: B15 VL
notes: paTCE with PSMA.262; also called AC3655
B17: CD3.225 (bispecific antibody, V domains shown)
VH: B15 VH with D57N, Y61T
VL: B15 VL
notes: paTCE with PSMA.262; also called AC3656
B18: CD3.226 (bispecific antibody, V domains shown)
VH: B15 VH with N30S, D57N, Y61T
VL: B15 VL
notes: paTCE with PSMA.262; also called AC3657
B19: CD3.231 (bispecific antibody, V domains shown)
VH: B15 VH with E87S
VL: B15 VL
notes: paTCE with PSMA.262; also called AC3662
B20: CD3.232 (bispecific antibody, V domains shown)
VH: B15 VH with N30S, E87S
VL: B15 VL
notes: paTCE with PSMA.262; also called AC3663
B21: CD3.233 (bispecific antibody, V domains shown)
VH: B15 VH with D57N, Y61T, E87S
VL: B15 VL
notes: paTCE with PSMA.262; also called AC3664
B22: CD3.234 (bispecific antibody, V domains shown)
VH: B15 VH with N30S, D57N, Y61T, E87S
VL: B15 VL
notes: paTCE with PSMA.262; also called AC3665
B23: CD3.235 (bispecific antibody, V domains shown)
VH: B15 VH with T53S, D57E, E87S
VL: B15 VL
notes: paTCE with PSMA.262; also called AC3666
B24: CD3.236 (bispecific antibody, V domains shown)
VH: B15 VH with T53S, D57N, Y58G, E87S
VL: B15 VL
notes: paTCE with PSMA.262; also called AC3667
B25: CD3.237 (bispecific antibody, V domains shown)
VH: B15 VH with T53S, D57N, Y58G
VL: B15 VL
notes: paTCE with PSMA.262; also called AC3668
B26: CD3.238 (bispecific antibody, V domains shown)
VH: B15 VH with G49A, D57N, Y61T, G68D, E87S
VL: B15 VL
notes: paTCE with PSMA.262; also called AC3669
B27: CD3.239 (bispecific antibody, V domains shown)
VH: B15 VH with G49A, T53S, Y55R, D57N, Y61T, G68D, E87S
VL: B15 VL
notes: paTCE with PSMA.262; also called AC3670
B28: CD3.240 (bispecific antibody, V domains shown)
VH: B15 VH with G49A, T53S, Y55K, D57N, Y61T, G68D, E87S
VL: B15 VL
notes: paTCE with PSMA.262; also called AC3671
B29: CD3.241 (bispecific antibody, V domains shown)
VH: B15 VH with G49A, T53S, Y55T, D57N, Y61T, G68D, E87S
VL: B15 VL
notes: paTCE with PSMA.262; also called AC3672
B30: CD3.242 (bispecific antibody, V domains shown)
VH: B15 VH with T53S, V81L, E87S
VL: B15 VL
notes: paTCE with PSMA.262; also called AC3673
B31: CD3.244 (bispecific antibody, V domains shown)
VH: B15 VH with T53S, D57N, Y58G, V81L, E87S
VL: B15 VL
notes: paTCE with PSMA.262; also called AC3675
B32: CD3.245 (bispecific antibody, V domains shown)
VH: B15 VH with T53S, D57N, Y58G, V81L
VL: B15 VL
notes: paTCE with PSMA.262; also called AC3676
B33: CD3.246 (bispecific antibody, V domains shown)
VH: B15 VH with G49A, D57N, Y61T, G68D, V81L, E87S
VL: B15 VL
notes: paTCE with PSMA.262; also called AC3677
B34: CD3.247 (bispecific antibody, V domains shown)
VH: B15 VH with G49A, T53S, Y55R, D57N, Y61T, G68D, V81L, E87S
VL: B15 VL
notes: paTCE with PSMA.262; also called AC3678
B35: CD3.248 (bispecific antibody, V domains shown)
VH: B15 VH with G49A, T53S, Y55K, D57N, Y61T, G68D, V81L, E87S
VL: B15 VL
notes: paTCE with PSMA.262; also called AC3679
B36: CD3.249 (bispecific antibody, V domains shown)
VH: B15 VH with G49A, T53S, Y55T, D57N, Y61T, G68D, V81L, E87S
VL: B15 VL
notes: paTCE with PSMA.262; also called AC3680
B37: CD3.250 (bispecific antibody, V domains shown)
VH: B15 VH with D57N, Y61T, G68D, E87S
VL: B15 VL
notes: paTCE with PSMA.262; also called AC3681
B38: CD3.252 (bispecific antibody, V domains shown)
VH: B15 VH with T53S, Y55K, D57N, Y61T, G68D, E87S
VL: B15 VL
notes: paTCE with PSMA.262; also called AC3683
B39: CD3.253 (bispecific antibody, V domains shown)
VH: B15 VH with T53S, Y55T, D57N, Y61T, G68D, E87S
VL: B15 VL
notes: paTCE with PSMA.262; also called AC3684
B40: CD3.254 (bispecific antibody, V domains shown)
VH: B15 VH with D57N, Y61T, G68D
VL: B15 VL
notes: paTCE with PSMA.262; also called AC3685
B41: CD3.255 (bispecific antibody, V domains shown)
VH: B15 VH with T53S, Y55R, D57N, Y61T, G68D
VL: B15 VL
notes: paTCE with PSMA.262; also called AC3686
B42: CD3.257 (bispecific antibody, V domains shown)
VH: B15 VH with T53S, Y55T, D57N, Y61T, G68D
VL: B15 VL
notes: paTCE with PSMA.262; also called AC3688
B43: CD3.258 (bispecific antibody, V domains shown)
VH: B15 VH with D57N, Y61T, G68D, V81L, E87S
VL: B15 VL
notes: paTCE with PSMA.262; also called AC3689
B44: CD3.259 (bispecific antibody, V domains shown)
VH: B15 VH with T53S, Y55R, D57N, Y61T, G68D, V81L, E87S
VL: B15 VL
notes: paTCE with PSMA.262; also called AC3690
B45: CD3.260 (bispecific antibody, V domains shown)
VH: B15 VH with T53S, Y55K, D57N, Y61T, G68D, V81L, E87S
VL: B15 VL
notes: paTCE with PSMA.262; also called AC3691
B46: CD3.261 (bispecific antibody, V domains shown)
VH: B15 VH with T53S, Y55T, D57N, Y61T, G68D, V81L, E87S
VL: B15 VL
notes: paTCE with PSMA.262; also called AC3692
B47: CD3.262 (bispecific antibody, V domains shown)
VH: B15 VH with T53S, Y55R, D57N, Y61T, G68D, V81L
VL: B15 VL
notes: paTCE with PSMA.262; also called AC3693
B48: CD3.263 (bispecific antibody, V domains shown)
VH: B15 VH with R19K, Y55R, D57N, E87S
VL: B15 VL
notes: paTCE with PSMA.262; also called AC3694
B49: CD3.264 (bispecific antibody, V domains shown)
VH: B15 VH with R19K, N30S, Y55R, D57N, E87S
VL: B15 VL
notes: paTCE with PSMA.262; also called AC3695

The binders below were run against T1, human PSMA (human, UniProt Q04609 44-750, limits assumed) (assay: binding screen).
T1 construct: also called huPSMA; hPSMA
T1 sequence (Q04609 44-750 limits assumed): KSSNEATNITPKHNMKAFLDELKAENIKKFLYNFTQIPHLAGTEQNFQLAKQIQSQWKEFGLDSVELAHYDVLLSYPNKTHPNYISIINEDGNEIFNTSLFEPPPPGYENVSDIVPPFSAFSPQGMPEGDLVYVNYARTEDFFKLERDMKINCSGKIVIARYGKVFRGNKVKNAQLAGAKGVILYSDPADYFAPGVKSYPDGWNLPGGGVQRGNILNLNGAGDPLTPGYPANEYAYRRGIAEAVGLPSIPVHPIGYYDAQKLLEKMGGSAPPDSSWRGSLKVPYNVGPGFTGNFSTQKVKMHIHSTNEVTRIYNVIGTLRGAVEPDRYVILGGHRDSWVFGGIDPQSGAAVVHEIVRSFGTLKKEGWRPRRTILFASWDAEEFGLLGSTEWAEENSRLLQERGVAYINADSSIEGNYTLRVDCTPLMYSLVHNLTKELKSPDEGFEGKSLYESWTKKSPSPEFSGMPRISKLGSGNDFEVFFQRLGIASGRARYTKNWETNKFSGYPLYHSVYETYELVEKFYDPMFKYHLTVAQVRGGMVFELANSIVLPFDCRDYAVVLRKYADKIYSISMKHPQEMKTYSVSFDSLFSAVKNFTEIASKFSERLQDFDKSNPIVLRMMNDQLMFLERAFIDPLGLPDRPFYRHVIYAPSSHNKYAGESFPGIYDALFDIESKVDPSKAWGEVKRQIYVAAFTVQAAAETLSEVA

Question: How did the Kd turn out when B1 was run?
Answer: 10.4 nM

Question: With B2 as the binder, how does the Kd read?
Answer: 10 nM

Question: For B3, which Kd is on record?
Answer: 2.8 nM

Question: For B4, which Kd is on record?
Answer: 10.3 nM

Question: With B5 as the binder, how does the Kd read?
Answer: 5.9 nM

Question: Does B6 bind?
Answer: binds

Question: With B7 as the binder, how does the Kd read?
Answer: 6 nM

Question: With B8 as the binder, how does the Kd read?
Answer: 8.8 nM

Question: For B9, which Kd is on record?
Answer: 8.5 nM

Question: With B10 as the binder, how does the Kd read?
Answer: 23.1 nM

Question: Does B11 bind?
Answer: no binding

Question: B12 was tested. Which Kd did it give?
Answer: 12 nM

Question: Does B13 bind?
Answer: no binding

Question: How did the Kd turn out when B14 was run?
Answer: 69.9 nM

These binders were tested against T2, human CD3 epsilon (human, UniProt P07766 23-126, limits assumed) (assay: Octet, crude lysate).
T2 construct: also called huCD3e
Description: Pool 2 consisted of paTCE molecules each containing PSMA.262 and one of 64 CD3.23 mutation combination variants. Stability and affinity of the individually expressed molecules in the form of crude lysate was evaluated by Octet. […] The binding of these anti-CD3 molecules (CD3.227, CD3.228, CD3.229 and CD3.230) to human and cynomolgus CD3 was measured by Octet and the Tm was measured by Differential Scanning Fluorimetry. All variants were paired with PSMA.262 except for CD3.23 which was paired with PSMA.5.

T2 sequence (P07766 23-126 limits assumed): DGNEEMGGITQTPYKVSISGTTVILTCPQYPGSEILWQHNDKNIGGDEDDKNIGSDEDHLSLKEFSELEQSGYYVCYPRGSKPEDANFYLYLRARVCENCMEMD

Question: B15 was tested. Which Kd did it give?
Answer: 6 nM

Question: With B16 as the binder, how does the Kd read?
Answer: 6.4 nM

Question: For B17, which Kd is on record?
Answer: 19.5 nM

Question: With B18 as the binder, how does the Kd read?
Answer: 50.9 nM

Question: B19 was tested. Which Kd did it give?
Answer: 5.1 nM

Question: With B20 as the binder, how does the Kd read?
Answer: 5.1 nM

Question: B21 was tested. Which Kd did it give?
Answer: 24.9 nM

Question: Which Kd does the source give for B22 here?
Answer: 17.4 nM

Question: B23 was tested. Which Kd did it give?
Answer: 6.5 nM

Question: For B24, which Kd is on record?
Answer: 21.9 nM

Question: B25 was tested. Which Kd did it give?
Answer: 22.2 nM

Question: B26 was tested. Which Kd did it give?
Answer: 23.1 nM

Question: Which Kd does the source give for B27 here?
Answer: 29.9 nM

Question: How did the Kd turn out when B28 was run?
Answer: 16.5 nM

Question: With B29 as the binder, how does the Kd read?
Answer: 92.6 nM

Question: Which Kd does the source give for B30 here?
Answer: 7.7 nM

Question: B31 was tested. Which Kd did it give?
Answer: 43.6 nM

Question: Which Kd does the source give for B32 here?
Answer: 19.3 nM

Question: B33 was tested. Which Kd did it give?
Answer: 35.2 nM

Question: How did the Kd turn out when B34 was run?
Answer: 28.9 nM

Question: Which Kd does the source give for B35 here?
Answer: 49.2 nM

Question: Which Kd does the source give for B36 here?
Answer: 128 nM

Question: For B37, which Kd is on record?
Answer: 31 nM

Question: For B38, which Kd is on record?
Answer: 22.9 nM

Question: For B39, which Kd is on record?
Answer: 79.9 nM

Question: With B40 as the binder, how does the Kd read?
Answer: 32.3 nM

Question: With B41 as the binder, how does the Kd read?
Answer: 22.4 nM

Question: For B42, which Kd is on record?
Answer: 159 nM

Question: How did the Kd turn out when B43 was run?
Answer: 38 nM

Question: For B44, which Kd is on record?
Answer: 29.4 nM

Question: Which Kd does the source give for B45 here?
Answer: 45.6 nM

Question: B46 was tested. Which Kd did it give?
Answer: 97 nM

Question: For B47, which Kd is on record?
Answer: 25.4 nM

Question: B48 was tested. Which Kd did it give?
Answer: 7.2 nM

Question: For B49, which Kd is on record?
Answer: 4.5 nM
